Target: Insulin-like Growth Factor Receptor (IGFR; Type I IGF receptor) (UniProt P08069)
Test: displacement of 125I-IGF-1 from IGFR

In the case of “Lantus (insulin analogue with two additional Arg residues at the carboxy-terminal end of the B-chain) (ligand)”, the Kd is reported as 3.14 nM, the Relative Affinity (to IGF-1) is reported as 0.015 fold and the fold affinity relative to human insulin is reported as 2 to 3 fold.

Reference: patent publication US20100099601A1
